Results from US20210324359A1, “USE OF GRAM-NEGATIVE LYSIN-ANTIMICROBIAL PEPTIDE (AMP) POLYPEPTIDE CONSTRUCTS IN TREATING ENDOCARDITIS” (priority 2020, published 2021).
“And” between values parts separate entries of the source, which are not always exact repeats. Equal entries are not always repeated.

Experiments:
[1] = test system: P. aeruginosa strain WC-453; assay: Time-kill assay in HEPES or CAA with 25% human serum (Tables 7, 8); format: cell-based, Pseudomonas aeruginosa
Experimental: Exponential phase bacteria were then pelleted and resuspended in 1/5 culture volume of 25 mM HEPES, pH 7.4 before a final adjustment to an optical density corresponding to a McFarland value of 0.5. […] All treatments were incubated at 37° C. with aeration. At time points before the addition of lysin (or buffer control) and at 1 hour and 3 hours intervals thereafter, culture samples were removed for quantitative plating on CAA agar plates.

[2] = test system: carbapenem-resistant P. aeruginosa strains; assay: Resensitization of carbapenem-resistant strains, combinations with imipenem or meropenem (Tables 18-22); format: cell-based, Pseudomonas aeruginosa
P. aeruginosa isolates = assay: MIC against a range of isolates in CAA + […] human serum (Table 11); format: cell-based, Pseudomonas aeruginosa
[3] = test system: Pseudomonas aeruginosa strain CFS-1292 (meropenem resistant); assay: MIC in 25% CAA alone, with […] human serum or […] SURVANTA (Table 13); format: cell-based
Experimental: Materials and methods: MICs were determined by broth microdilution in media supplemented with human serum and pulmonary surfactant ([…]®; Myoderm Clinical Supplies). Minimal biofilm eradicating concentrations (MBECs) were determined using standard methods. […] Fluorescence microscopy was performed after LIVE/DEAD staining (ThermoFisher) and TEM was performed.

[4] = test system: outer membrane of P. aeruginosa (CFS 1292); assay: N-phenyl-1-napthylamine (NPN) uptake assay, outer membrane destabilization (Table 15); format: cell-based, Pseudomonas aeruginosa; settings: NPN fluorescence, buffer = 100, lysin 100 μg/well
Experimental: The ability of gram-negative lysins to destabilize the outer membrane of P. aeruginosa was evaluated through the use of an N-phenyl-1-napthylamine (NPN) uptake assay. […] NPN was added to a final concentration of […]. […] Changes in fluorescence were recorded (excitation 1=350 nm; emission 1=420 nm) over two hours.

[5] = test system: Pseudomonas aeruginosa strain CFS-1292 (meropenem resistant); settings: strain CFS-1292; no added cations
Experimental: The activity of selected GN lysins and constructs in the presence of divalent cations was evaluated, and the impact of divalent cations at physiological concentrations was examined in the MIC assay format.

B1: GN121: variant lysin (SEQ ID NO: 175), also disclosed in WO 2019/118632 (protein)
chain: MTYTLSKRSLDNLKGVHPDLVAVVHRAIQLTPVDFAVIEGLRSVSRQKELVAAGASKTMNSRHLTGHAVDLAAYVNGIRWDWPLYDAIAVAVKAAAKELGVAIVWGGDWTTFKDGPHFELDRSKYRRKKTRKRLKKIGKVLKWI
bactericidal activity (CFU decrease of 3-Log10, 3 hours after the addition of lysin) ([1]; 10 μg/mL, enumerated lysins in CAA/HuS, general statement for HEPES and CAA/HuS): bactericidal activity | HEPES (Log10 CFU/mL), 1 hr ([1]; 25 mM HEPES pH 7.4, lysin 10 μg/ml, 1 hr, WC-453): <3.7 Log10 CFU/mL | HEPES (Log10 CFU/mL), 3 hr ([1]; 25 mM HEPES pH 7.4, lysin 10 μg/ml, 3 hr, WC-453): <3.7 Log10 CFU/mL | CAA/HuS (Log10 CFU/mL), 1 hr ([1]; CAA + 25% human serum, lysin 10 μg/ml, 1 hr, WC-453): 7.6 Log10 CFU/mL | CAA/HuS (Log10 CFU/mL), 3 hr ([1]; CAA + 25% human serum, lysin 10 μg/ml, 3 hr, WC-453): <3.7 Log10 CFU/mL | resensitization to carbapenems in synergistic combinations ([2]; imipenem (IPM) and meropenem (MEM), carbapenem-resistant isolates): reductions of IPM and MEM MICS to below breakpoint values | lysin MIC, Combination ([2]; in combination with imipenem, isolate PA19): 0.125 µg/mL | lysin MIC, Combination ([2]; in combination with imipenem, isolate PA20): 0.25 µg/mL | lysin MIC, Combination ([2]; in combination with imipenem, isolate PA21): 0.125 µg/mL | lysin MIC, Combination ([2]; in combination with imipenem, isolate PA22): 0.25 µg/mL | lysin MIC, Combination ([2]; in combination with imipenem, isolate PA23): 0.25 µg/mL | lysin MIC, Combination ([2]; in combination with imipenem, isolate PA24): 0.125 µg/mL | lysin MIC, Combination ([2]; in combination with meropenem, isolate PA19): 0.5 µg/mL | lysin MIC, Combination ([2]; in combination with meropenem, isolate PA20): 0.5 µg/mL | lysin MIC, Combination ([2]; in combination with meropenem, isolate PA22): 0.25 µg/mL | lysin MIC, Combination ([2]; in combination with meropenem, isolate PA23): 0.5 µg/mL | lysin MIC, Combination ([2]; in combination with meropenem, isolate WC-452): 0.06 µg/mL | MIC, Alone ([2]; isolate PA19): 1 µg/mL and 2 µg/mL | MIC, Alone ([2]; isolate PA20): 1 µg/mL and 2 µg/mL | MIC, Alone ([2]; isolate PA21): 1 µg/mL | MIC, Alone ([2]; isolate PA22): 2 µg/mL and 1 µg/mL | MIC, Alone ([2]; isolate PA23): 1 µg/mL and 2 µg/mL | MIC, Alone ([2]; isolate PA24): 1 µg/mL | MIC, Alone ([2]; isolate WC-452): 1 µg/mL | FICI ([2]; lysin + imipenem, isolate PA19): 0.155 | FICI ([2]; lysin + imipenem, isolate PA20): 0.265 | FICI ([2]; lysin + imipenem, isolate PA21): 0.155 | FICI ([2]; lysin + imipenem, isolate PA22): 0.188 | FICI ([2]; lysin + imipenem, isolate PA23): 0.257 | FICI ([2]; lysin + imipenem, isolate PA24): 0.155 | FICI ([2]; lysin + meropenem, isolate PA19): 0.281 | FICI ([2]; lysin + meropenem, isolate PA20): 0.313 | FICI ([2]; lysin + meropenem, isolate PA21): 0.188 | FICI ([2]; lysin + meropenem, isolate PA22): 0.313 | FICI ([2]; lysin + meropenem, isolate PA23): 0.375 | FICI ([2]; lysin + meropenem, isolate PA24): 0.156 | FICI ([2]; lysin + meropenem, isolate WC-452): 0.123 | activity against P. aeruginosa isolates in human serum or SURVANTA (P. aeruginosa isolates; Tables 11 and 12): active against a variety of P. aeruginosa isolates | MIC, CAA + […] Human Serum (P. aeruginosa isolates; strain CFS 1109 (ATCC 17646)): 0.5 µg/mL | MIC, CAA + […] Human Serum (P. aeruginosa isolates; strain CFS 1292): 1 µg/mL | MIC, CAA + […] Human Serum (P. aeruginosa isolates; strain CFS1539 (PA1)): 0.5 µg/mL | MIC, CAA + […] Human Serum (P. aeruginosa isolates; strain CFS 1540 (PA2)): 0.5 µg/mL | MIC, CAA + […] Human Serum (P. aeruginosa isolates; strain CFS 1541 (PA3)): 0.5 µg/mL | MIC, CAA + […] Human Serum (P. aeruginosa isolates; strain CFS 1557 (PA19)): 2 µg/mL | MIC, CAA + […] Human Serum (P. aeruginosa isolates; strain CFS 1558 (PA20)): 0.5 µg/mL | MIC, CAA + […] Human Serum (P. aeruginosa isolates; strain CFS 1559 (PA21)): 1 µg/mL | MIC, CAA + […] Human Serum (P. aeruginosa isolates; strain CFS 1560 (PA22)): 1 µg/mL | MIC, CAA + […] Human Serum (P. aeruginosa isolates; strain CFS 1561 (PA23)): 1 µg/mL | MIC, CAA + […] Human Serum (P. aeruginosa isolates; strain CFS 1562 (PA24)): 1 µg/mL | MIC, CAA + […] Human Serum (P. aeruginosa isolates; strain CFS 1596 (PA26)): 0.5 µg/mL | MIC, CAA + […] Human Serum (P. aeruginosa isolates; strain CFS 1597 (PA27)): 0.5 µg/mL | MIC, CAA + […] Human Serum (P. aeruginosa isolates; strain CFS 1669 (PA41)): 1 µg/mL | MIC, CAA + […] Human Serum (P. aeruginosa isolates; strain CFS 1674 (PA46)): 0.5 µg/mL | MIC, CAA + […] Human Serum (P. aeruginosa isolates; strain CFS 1675 (PA47)): 0.5 µg/mL | MIC, CAA + […] Human Serum (P. aeruginosa isolates; strain CFS 1766 (ATCC 27853)): 2 µg/mL | MIC in […] Survanta [3]: 2 µg/mL | MIC in human serum ([…]) in CAA [3]: 0.5 µg/mL | activity in human serum and pulmonary surfactant [3]: active in human serum and pulmonary surfactant | 25% CAA MIC ([3]; media alone): 1 | % RFU ([4]; 5 minutes): 370 % RFU | % RFU ([4]; 10 minutes): 500 % RFU | % RFU ([4]; 20 minutes): 528 % RFU | % RFU ([4]; 40 minutes): 530 % RFU | % RFU ([4]; 60 minutes): 565 % RFU | % RFU ([4]; 100 minutes): 557 % RFU | MIC in 25% CAA [5]: 1 to 2 µg/mL
